{
  "source": "patent US20230181723A1",
  "about": "(UNIVERSITY OF MARYLAND COLLEGE PARK, published 2023)",
  "key": {"[1]": {"target": "T1, FLAG-tagged human FcRn heavy chain (pcDNA-FLAGFcRn), expressed in HeLa^FcRn cells (human, UniProt P55899 24-365)", "T1 construct": "whole, on cells; it pairs with endogenous β2m in the cells; also called FcRn HC; WT FcRn", "T1 sequence (P55899 other isoform, or with tags, fused parts or gaps)": "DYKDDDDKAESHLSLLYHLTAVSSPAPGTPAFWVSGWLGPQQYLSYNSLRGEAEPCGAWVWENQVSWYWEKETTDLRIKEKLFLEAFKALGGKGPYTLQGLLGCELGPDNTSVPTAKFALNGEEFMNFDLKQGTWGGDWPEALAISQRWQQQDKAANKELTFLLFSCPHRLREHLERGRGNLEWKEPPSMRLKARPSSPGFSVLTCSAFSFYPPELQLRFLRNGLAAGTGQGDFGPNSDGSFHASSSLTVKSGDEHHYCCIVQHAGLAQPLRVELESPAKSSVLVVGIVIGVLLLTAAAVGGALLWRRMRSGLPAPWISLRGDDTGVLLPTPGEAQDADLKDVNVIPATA", "assay": "probing for interactions in HeLa^FcRn cells transfected with HA-tagged HCMV cDNAs"}, "[2]": {"target": "T1, FLAG-tagged human FcRn heavy chain …", "assay": "reciprocal co-immunoprecipitation (anti-HA for US2, anti-FLAG for FcRn) from HeLa^FcRn+US2 lysates"}, "[3]": {"target": "T2, HA-tagged HCMV US11 (pEF6-US11, gene synthesised from HCMV AD169 DNA), expressed in HeLa cells (human cytomegalovirus (AD169 DNA as …, UniProt P09727 18-215))", "T2 construct": "Full-length membrane glycoprotein expressed in transfected HeLa cells and tested in CHAPS lysates; also called HCMV glycoprotein US11; wild-type US11", "assay": "immunoprecipitation of US11 from HeLa^US11 cells, blot for Derlin-1"}, "[4]": {"target": "T2, HA-tagged HCMV US11 (pEF6-US11, gene …)", "assay": "reciprocal co-immunoprecipitation (anti-HA, anti-FLAG) from HeLa^HFE+US11 lysates"}, "[5]": {"target": "T3, human TMEM129 (E3 ligase), endogenous in HeLa cells (human, UniProt A0AVI4 1-362)", "T3 construct": "whole, on cells; Endogenous protein in HeLa lysates; also called E3 ligase TMEM129", "T3 sequence (looked up)": "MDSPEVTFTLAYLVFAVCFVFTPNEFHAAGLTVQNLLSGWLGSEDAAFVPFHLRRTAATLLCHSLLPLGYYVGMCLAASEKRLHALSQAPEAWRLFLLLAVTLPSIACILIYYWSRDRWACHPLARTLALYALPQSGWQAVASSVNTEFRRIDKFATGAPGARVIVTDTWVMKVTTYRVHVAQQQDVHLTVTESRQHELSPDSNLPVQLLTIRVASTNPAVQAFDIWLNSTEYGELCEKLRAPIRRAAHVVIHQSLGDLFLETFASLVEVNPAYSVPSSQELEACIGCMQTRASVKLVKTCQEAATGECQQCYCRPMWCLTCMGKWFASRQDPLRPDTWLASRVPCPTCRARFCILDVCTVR", "assay": "immunoprecipitation with anti-TMEM129 from HeLa^FcRn cells transfected with Derlin-1"}},
  "data": [
    {"binder": "HA-tagged HCMV UL16, expressed in HeLa^FcRn cells (other, whole, on cells) VDLGSKSSNSTCRLNVTELASIHPGETWTLHGMCISICYYENVTEDEIIGVAFTWQHNESVVDLWLYQNDTVIRNFSDITTNILQDGLKMRTVPVTKLYTSRMVTNLTVGRYDCLRCENGTTKIIERLYVRLGSLYPRPPGSGLAKHPSVSADEELSATLARDIVLVSAITLFFFLLALRIPQRLCQRLRIRLPHRYQRLRTED", "values": [
      {"measurement": "binding result", "setting": "[1]", "result": "binds"}
    ]},
    {"binder": "HA-tagged HCMV US6, expressed in HeLa^FcRn cells (other, whole, on cells) ERSSRDPKTLLSLSPRQQACVPRTKSHRPVCYNDTGDCTDADDSWKQLGEDFAHQCLQAAKKRPKTHKSRPNDRNLEGRLTCQRVRRLLPCDLDIHPSHRLLTLMNNCVCDGAVWNAFRLIERHGFFAVTLYLCCGITLLVVILALLCSITYESTGRGIRRCGS", "values": [
      {"measurement": "binding result", "setting": "[1]", "result": "binds"}
    ]},
    {"binder": "HA-tagged HCMV US2 (pEF6-US2), expressed in HeLa cells (other, whole, on cells; also called HeLa^US2; HeLa^FcRn+US2) MNNLWKAWVGLWTSMGPLIRLPDGITKAGEDALRPWKSTAKHPWFQIEDNRCYIDNGKLFARGSIVGNMSRFVFDPKADYGGVGENLYVHADDVEFVPGESLKWNVRNLDVMPIFETLALRLVLQGDVIWLRCVPELRVDYTSSAYMWNMQYGMVRKSYTHVAWTIVFYSINITLLVLFIVYVTVDCNLSMMWMRFFVCYPYDVPDYA", "values": [
      {"measurement": "binding result", "setting": "[2]", "result": "no binding"}
    ]},
    {"binder": "Derlin-1 in HeLa^US11 or HeLa^US11Q192L stable cells (FIG. 16A; no transfection of Derlin-1 stated) (other, whole, on cells) SDIGDWFRSIPAITRYWFAATVAVPLVGKLGLISPAYLFLWPEAFLYRFQIWRPITATFYFPVGPGTGFLYLVNLYFLYQYSTRLETGAFDGRPADYLFMLLFNWICIVITGLAMDMQLLMIPLIMSVLYVWAQLNRDMIVSFWFGTRFKACYLPWVILGFNYIIGGSVINELIGNLVGHLYFFLMFRYPMDLGGRNFLSTPQFLYRWLPSRRGGVSGFGVPPASMRRAADQNGGGGRHNWGQGFRLGDQ", "values": [
      {"measurement": "binding result", "setting": "[3]", "result": "binds"}
    ]},
    {"binder": "FLAG-tagged human HFE (hemochromatosis protein), expressed in HeLa^HFE cells (other, whole, on cells; Specificity control with an MHC class I-like structure; also called HEF; HeLa^HFE+US11) DYKDDDDKRLLRSHSLHYLFMGASEQDLGLSLFEALGYVDDQLFVFYDHESRRVEPRTPWVSSRISSQMWLQLSQSLKGWDHMFTVDFWTIMENHNHSKESHTLQVILGCEMQEDNSTEGYWKYGYDGQDHLEFCPDTLDWRAAEPRAWPTKLEWERHKIRARQNRAYLERDCPAQLQQLLELGRGVLDQQVPPLVKVTHHVTSSVTTLRCRALNYYPQNITMKWLKDKQPMDAKEFEPKDVLPNGDGTYQGWITLAVPPGEEQRYTCQVEHPGLDQPLIVIWEPSPSGTLVIGVISGIAVFVVILFIGILFIILRKRQGSRGAMGHYVLAERE", "values": [
      {"measurement": "binding result", "setting": "[4]", "result": "no binding"}
    ]},
    {"binder": "Myc-tagged human Derlin-1 (pSectag2-Derlin-1) (other, whole, on cells; Transiently expressed in HeLa transfectants; tested in lysates; also called myc-tagged Derlin-1; Derlin-1 (WT)) SDIGDWFRSIPAITRYWFAATVAVPLVGKLGLISPAYLFLWPEAFLYRFQIWRPITATFYFPVGPGTGFLYLVNLYFLYQYSTRLETGAFDGRPADYLFMLLFNWICIVITGLAMDMQLLMIPLIMSVLYVWAQLNRDMIVSFWFGTRFKACYLPWVILGFNYIIGGSVINELIGNLVGHLYFFLMFRYPMDLGGRNFLSTPQFLYRWLPSRRGGVSGFGVPPASMRRAADQNGGGGRHNWGQGFRLGDQEQKLISEEDL", "values": [
      {"measurement": "binding result", "setting": "[5]", "result": "binds"}
    ]}
  ]
}
